We go through 2 molecules from patent US20130156692A1 (INDI MOLECULAR, published 2013).

Broadly, the IC50 is the midpoint of a concentration-inhibition curve. The term EC50 (read off the curve) denotes the midpoint of the concentration-response curve. A higher EC50 (read off the curve) goes with a need for much substance.

Bridges are numbered along the chain shown (N, C = ends). Primed or numbered codes have the meaning given here. Where no end group is shown, it is not given here. [ ]: non-standard residue; d: D form. Tz4″ = 1,4-disubstituted 1,2,3-triazole linker between anchor and secondary ligand; Lys(N3) = [N-]=[N+]=NCCCC[C@H](N)C(=O)O

Assay [1] addresses T1, human VEGF165A (#ab56620; Abcam) (human, UniProt P15692-4 27-191, biotinylated (EZ-Link Sulfo-NHS-LC-Biotinylation kit) in the competitive ELISAs of Examples 8, 9 and 16; unlabelled in the direct ELISA and the pull-down).
T1 construct: Isoform VEGF165 of VEGF-A; also called rhVEGF165; biotinylated VEGF165
Kind of assay: competitive ELISA, inhibition of biotinylated VEGF165 binding to VEGFR2-Fc; competition ELISA: blocking of biotinylated VEGF165 binding to VEGFR2-Fc; anchor tested up to 50 µM.

The target in assay [2] is T1, human VEGF165A (#ab56620; Abcam). Kind of assay: direct ELISA: VEGF165A immobilized on NUNC MaxiSorp plate, biotinylated PCC or bevacizumab (mAb or Fab) titrated, normalized to binding at saturation. In general terms: ELISA stands for enzyme-linked immunosorbent assay.
Assay [3] shares this target. Kind of assay: direct ELISA: VEGF165A immobilized on NUNC MaxiSorp plate, biotinylated peptide titrated, normalized to binding at saturation.
For assay [4] the target is unchanged. Kind of assay: direct ELISA: VEGF165 coated on the plate, biotinylated binder titrated, streptavidin poly-HRP, fluorescence normalised to saturation.
Assay [5] shares this target. Kind of assay: competitive ELISA, inhibition of biotinylated VEGF165 binding to VEGFR2-Fc; competition ELISA: blocking of biotinylated VEGF165 binding to VEGFR2-Fc; Biligand 2 tested up to 50 µM.
Assay [6] shares this target. The assay can be described thus: direct ELISA, VEGF165 coated, biotinylated capture agent.

T1 sequence (P15692 other isoform, or with tags, fused parts or gaps limits assumed): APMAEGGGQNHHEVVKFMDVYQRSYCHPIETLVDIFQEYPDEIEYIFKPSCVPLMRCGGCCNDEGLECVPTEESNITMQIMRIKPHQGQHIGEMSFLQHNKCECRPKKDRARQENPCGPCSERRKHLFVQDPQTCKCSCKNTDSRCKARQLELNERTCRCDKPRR

B1: anchor ligand X-VEPNCDIHVMWEWECFERL-Az4 (peptide)
peptide: VEPNCDIHVMWEWECFERL[Lys(N3)]
modifications: disulfide 5-15; also: N-terminal X is biotin-PEG3 or acetyl, not settled
notes: Phage display-derived peptide; also called Biotin-PEG-anchor ligand-Az4
The molecule B1 registered an IC50 in assay [1] above 50000 nM. Also, the “EC50 (read off the curve)” value in assay [2] was around 100 nM; in assay [3] it was around 300 nM; in assay [4] it was around 100 nM.

B2: Biligand 2 (X-…-Tz4-Ifrew) (designed binder)
peptide: VEPNCDIHVMWEWECFERL[Tz4″][dL][dF][dR][dE][dW]
modifications: disulfide 5-15; numbers in words are those of the source; also: N-terminal group is biotin-PEG3 or acetyl, not fixed
In assay [5], B2 had an IC50 above 50000 nM. In addition, the EC50 (read off the curve) in assay [2] turned out to be 40 nM; in assay [4], 50 nM. The fold improvement in affinity relative to the anchor ligand in assay [6] is 5 fold.
